Numbering of substitutions follows the chain as printed. Names may count otherwise.
T1: PMA-treated THP-1 cells (endogenously expressed human MSR1) (Homo sapiens, UniProt P21757)
T1 construct: endogenous in cells; host or cells: THP-1 cells differentiated with PMA
T1 sequence (P21757 1-451): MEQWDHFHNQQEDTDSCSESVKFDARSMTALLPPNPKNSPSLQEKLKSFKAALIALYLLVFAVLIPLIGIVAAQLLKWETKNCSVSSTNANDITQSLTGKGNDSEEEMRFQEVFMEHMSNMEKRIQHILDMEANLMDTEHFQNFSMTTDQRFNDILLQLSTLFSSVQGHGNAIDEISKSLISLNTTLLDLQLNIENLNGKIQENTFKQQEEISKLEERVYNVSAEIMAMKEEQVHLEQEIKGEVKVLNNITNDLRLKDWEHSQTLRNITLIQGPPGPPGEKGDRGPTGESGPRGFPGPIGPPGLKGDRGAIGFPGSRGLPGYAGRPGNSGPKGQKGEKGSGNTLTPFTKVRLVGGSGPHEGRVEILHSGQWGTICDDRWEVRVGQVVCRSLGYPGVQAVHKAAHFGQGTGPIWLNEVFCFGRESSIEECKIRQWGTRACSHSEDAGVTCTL

T2: MSR1 on differentiated THP-1 cells (Homo sapiens, UniProt P21757)
T2 construct: endogenous in cells; host or cells: THP-1 cells differentiated with PMA
T2 sequence (P21757 1-451): T1 sequence (P21757 1-451)

B1: H1H21227N-N297Q: "modified versions of 21227N (H1H21227N-N297Q and H1H21227N-N297D)"; anti-MSR1 antibody "with a N297Q single point mutation" (antibody, V domains shown)
VH: QVQLVQSGAEVKKPGASVKVSCKVSGYTLTELSIHWVRQVPGKGLEWMGGFDPEEGETIFAQEFRDRVTLTEDTSPDTAYMELSSLKSEDAAVYYCTTPRYCNNGICYDYWGQGTLVTVSS
VL: DIQMTQSPSSLSASVGDRVTITCRASQSISNYLNWYQQKPGKAPKLLIYTASSLQSGVPSRFSGSGSGTDFTLTISSLQTEDFATYYCQQSYSNFPITFGQGTRLEIKR
B2: H1H21227N-N297D: "The 21227N antibody was also produced as a third version with a N297D mutation" (antibody, V domains shown)
VH: B1 VH
VL: B1 VL
B3: H1H21227N: "anti-MSR1 antibodies ... (21227N, 21231N, 21234N) were produced with the original human Fcγ portion"; "H1H" = human IgG1 Fc (antibody, V domains shown)
VH: B1 VH
VL: B1 VL
modifications: human IgG1 Fc
notes: "anti-MSR1 antibodies ; (21227N, 21231N, 21234N) were produced with the original human Fcγ portion"; "H1H" = human IgG1 Fc
B4: H1H21231N: "anti-MSR1 antibodies ... (21227N, 21231N, 21234N) were produced with the original human Fcγ portion"; "H1H" = human IgG1 Fc (antibody, V domains shown)
VH: EVQLVESGGGLVQPGGSLRLSCAASGFTFSDHYMDWVRQAPGKGLEWVGRTRNKANSHTTEYTASVTGRFTISRDDSRNSLYLQMNSLKTEDTAVYYCVRAGIIGTLFDYWGQGTLVTVSS
VL: B1 VL with S7F, N31S, Y32F, Y36F, L46F, T50A, T80P, N94S, F95P
modifications: human IgG1 Fc
notes: as for B3
B5: H1H27739P-N297Q: anti-MSR1 antibody "made with an N297Q single point mutation in human Fcγ portion" (antibody, V domains shown)
VH: EVQLVESGGGLVQPGGSLRLSCTASGFTFSSYAMSWVRQAPGKGLEWVSAISGTGSSTYFTDSVKGRFAISRDNSKNTLYLQMNSLRAEDTAVYYCAKDGEWLSTVTLFDYWGQGTLVTVSS
VL: EIVMTQSPATLSVSPGERATLSCRASQSVSSNLAWYQQKPGQAPRLLIYGASTRATGIPARFSGSGSGTDFTLTISSLQSEDFALYYCQQYFIWPPHPTFGPGTKVDIKR
B6: H1H27734P-N297Q: one of "Twelve anti-MSR1 antibodies"; "made with an N297Q single point mutation in human Fcγ portion" (antibody, V domains shown)
VH: EVQLVESRGGLVQPGGSLRLSCAASGFTFSSYAMSWVRQAPGKGLEWVSAISGSGGSTFYADSVKGRFTISRDNSKNTVYLQMNSLRAEDTAVYYCAKALVLRFLEWLGDYWGQGTLVTVSS
VL: DIQMTQSPSTLSASVGDRVTITCRASQSISSWLAWFQQKPGKAPKLLIYKASSLESGVPSRFSGSGSGTEFTLTISSLQPDDFATYYCQQYKSYWTFGQGTKVEIKR
B7: H1H27729P-N297Q: anti-MSR1 antibody "made with an N297Q single point mutation in human Fcγ portion" (antibody, V domains shown)
VH: QVQLVESGGGLVKPGGSLRLSCAASGFIFSDYYMSWIRQAPGKGLEWVSYISSSGTTIYGDSVKGRFTMSRDNAKNSLYLQMNSLRAEDTAVYYCARNYALFDYWGQGTLVTVSS
VL: DIQMTQSPSSLSASVGDRVTITCQASQDISKYLNWYQQKPGKAPKLLIYYTSNLETGVPSRFSGSGSGTDFTFTISSLQPEDIATYYCHQSDYLPFTFGPGTKVDIKR
B8: H1H27747P-N297Q (antibody, V domains shown)
VH: QVQLVESGGAVVQPGRSLRLSCAASGFTFSYYGMHWVRQAPGKGLEWVAVISYDGSKKYYADSVKGRFTISRDNSKNTLYLQMNSLRAEDTAVYYCAKDLTVDFYYGMDVWGQGTTVTVSS
VL: DIQMTQSPSSVSASVGDRVTITCRASQGISSWLAWYQQKPGKAPKLLIYATSSLQSGAPSRFSGSGSGTDFTLTISSLQPEDFATYFCQQANSFPYTFGQGTKLEIKR
B9: H1H21231N-N297Q: modified version of "21231N (H1H21231N-N297Q) anti-MSR1 antibodies" with "a N297Q single point mutation" (antibody, V domains shown)
VH: B4 VH
VL: B1 VL with S7F, N31S, Y32F, Y36F, L46F, T50A, T80P, N94S, F95P

These molecules were tested against T1, PMA-treated THP-1 cells (endogenously expressed human MSR1) (assay: Electrochemiluminescence antibody binding assay on MSR1-expressing cells). Conditions: not given.
Type: cell-based

| Molecule | Ratio of 11 nM Antibody Binding Signal (RLU) to isotype control, PMA-treated THP-1 |
| --- | --- |
| B1 | 5 |
| B2 | 6 |
| B3 | 7 |
| B4 | 42 |
| B5 | 9 |
| B6 | 21 |

What follows are molecules tested on B16F10.9 cells (MSR1 negative) (assay: Flow cytometry binding, MSR1 negative cells). Conditions: 10 μg/mL antibody.
Type: cell-based, mouse
Method: Relative cell surface binding of the anti-MSR1 antibodies to mouse MSR1 expressing cells was determined by flow cytometry using MSR1 positive RAW264.7 cells (ATCC, Catalog #TIB-71) and MSR1 negative B16F10.9 cells (Lin et al. 1998. PNAS 95:8829-8834). For the assay, cells were plated in PBS without calcium and magnesium (VWR Cat #45000-446) and 2% FBS (Saradigm Cat #1500-500) (Staining Buffer) in 96 well V-bottom plates (Axygen Scientific, Cat #P-96-450-V-C-S). To block binding to Fc receptors, RAW264.7 cells were incubated for 30 minutes at 4° C. with 500 μg/mL mouse IgG (Jackson ImmunoResearch, Cat #015-000-003) diluted in staining buffer, while B16F10.9 cells remained in staining buffer. Following Fc receptor blocking, 10 μg/mL of anti-MSR1 antibodies or an isotype control antibody were added to the cells and were subsequently incubated for 30 minutes on ice. For a positive control, a commercial anti-mouse MSR1 (Sino Biological, Cat #50129-R004) antibody was used, while a rabbit IgG antibody (Thermo Scientific, Cat #26102) was used as a negative control. […] Cells were subsequently washed and fixed using a 50% solution of Cytofix (BD Biosciences, Cat #554655) diluted in PBS. […] The signal to noise (S/N) was determined by calculating the ratio of the anti-MSR1 antibodies or the control antibodies MFI to the unstained sample MFI (Table 11).

| Molecule | B16F10.9 MFI | B16F10.9 S/N |
| --- | --- | --- |
| B7 | 3459 | – |
| B8 | 3875 | – |
| B1 | 3287 | 1 |
| B9 | 3374 | – |
| B5 | 3580 | – |
| B6 | 4505 | – |

These molecules were tested on parental HEK293 cells (assay: Electrochemiluminescence antibody binding assay, non-specific binding control cells). Conditions: not given.
Type: cell-based, human

| Molecule | Ratio of 11 nM Antibody Binding Signal (RLU) to isotype control, HEK293 |
| --- | --- |
| B7 | 3 |
| B1 | 1 |
| B2 | 1 |
| B3 | 1 |
| B6 | 14 |

Each molecule was assayed against T2, MSR1 on differentiated THP-1 cells (assay: Binding and internalization of cell-surface expressed MSR1 in differentiated THP-1 cells). Conditions: 10 μg/mL antibody.
Type: cell-based
Method: Exemplary anti-MSR1 antibodies were assessed for their ability to bind and internalize MSR1 on MSR1-expressing cells.
The THP-1 cells were allowed to differentiate for 4 days at 37° C. in 5% CO2. […] The remaining two plates were incubated at 37° C. for 1 hour followed by fixation and staining for 20 minutes using a solution of 4% PFA+5 μM DRAQ5 diluted in PBS (internalization plates). After fixation, all plates were washed once with PBS. […] The remaining plates were incubated with PBS only. Confocal images were acquired on the Opera Phenix (Perkin Elmer) at 40× magnification. […] The total binding at 4° C. (RFU values of 4° C. unquenched wells), total binding at 37° C. (RFU values of 37° C. unquenched wells), the total internalized RFU, and % Internalization were determined for each antibody as shown in Table 14.
For all calculations, background fluorescence from unstained wells was subtracted from every well. Total internalized RFU was calculated as follows: Total RFU of 37° C. unquenched samples−Surface RFU at 37° C. Surface RFU is defined as unquenched RFU at 37° C.−quenched RFU at 37° C.)/QE. QE (quenching efficiency) is defined as: 1−(Total RFU of 4° C. quenched sample/Total RFU of 4° C. unquenched sample). The % Internalization was determined from the following formula: (Total internalized RFU at 37° C./Total RFU at 37° C.)*100.

| Molecule | % Internalization |
| --- | --- |
| B7 | 57.0% |
| B8 | 58.2% |
| B1 | 78.5% |
| B5 | 71.6% |

Same assay, conditions: 10 μg/mL antibody, 4° C.

| Molecule | Total Binding at 4° C. |
| --- | --- |
| B7 | 1930685 |
| B8 | 2518361 |
| B1 | 1800012 |
| B5 | 3702857 |
| B6 | 482859 |

Same assay, conditions: 10 μg/mL antibody, 37° C.

| Molecule | Total Binding at 37° C. | Total Internalized RFU |
| --- | --- | --- |
| B7 | 6607625 | 3763127 RFU |
| B8 | 5917858 | 3444330 RFU |
| B1 | 4110990 | 3226161 RFU |
| B5 | 5608380 | 4016378 RFU |
| B6 | 1151348 | 737425 RFU |
